Reference: PMC6449974 (2019)

Molecular target: Cyclophilin A (Homo sapiens, UniProt P62937)
Assay: SPR

B1: HIV-1 capsid protein CA (unassembled) (protein)
chain: not shown
Q: For B1, which Kd is on record?
A: ~27 µM
